Consider one molecule from PMC3872242 (Journal of molecular biology, 2013).

Square brackets hold non-standard residues; d marks the D form. Ends that are not written are not given here. pS = N[C@@H](COP(=O)(O)O)C(=O)O

The experiment addresses T1, Human 14-3-3γ (human, UniProt P61981 2-247).
T1 sequence: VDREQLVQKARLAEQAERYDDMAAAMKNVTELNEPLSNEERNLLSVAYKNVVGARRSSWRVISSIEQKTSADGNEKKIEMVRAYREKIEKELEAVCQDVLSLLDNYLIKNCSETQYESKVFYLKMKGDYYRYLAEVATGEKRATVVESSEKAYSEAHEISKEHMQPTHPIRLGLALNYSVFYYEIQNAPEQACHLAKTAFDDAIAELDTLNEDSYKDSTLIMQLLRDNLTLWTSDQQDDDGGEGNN
The experiment is described as follows: crystal structure.

Take MPTPDATTPQAKGFRRAV[pS]ELDAKQAEAIMSPRFIGRRQSLIE [THp-(1-43), Ser19-phosphorylated N-terminal peptide of human tyrosine hydroxylase]: the binding result is reported as “binds”.
